In the data set the target is Sox2(24-118) DBD (UniProt P48431 24-118). Description: NMR titration; 0.5 M ionic strength; specific binding in slow exchange, nonspecific mode reduced; 20 mM Tris, 135 mM KCl, 15 mM NaCl, pH 7.3 (NMR: 10% D2O, 0.01% NaN3, 293 K; nanoDSF: 25 uM protein, 1 mM DTT in protein/DNA buffer, 288-368 K at 1 K/min). Particulars: protein: recombinant; tags: N-terminal T7-tag; blunt. In general terms: In DSF a fluorescence change marks the thermal transition of the protein.

The record followed here is publication PMC12585912, “Solution structure of the Sox2 DNA-binding domain reveals conformational selection in DNA binding”.

Sequence of Sox2(24-118) DBD (P48431 24-118): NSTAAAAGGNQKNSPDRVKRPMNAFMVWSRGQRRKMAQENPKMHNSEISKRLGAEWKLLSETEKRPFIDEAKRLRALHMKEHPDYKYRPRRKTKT

B1: FGF4 DNA 13-mer (dsDNA)
DNA 1: ACTCTTTGTTCGA
DNA 2: TCGAACAAAGAGT
For B1, the binding result was “binds”.
